The assay deals with 4-1BB (CD137) on T cells (human) (UniProt Q07011). Description: cell-based or functional assay.

Values joined by “and” are separate entries in the source; they are usually repeats but may differ in a detail not shown here. Identical values can stand only once.

4-1BB (CD137) on T cells (human), sequence (Q07011 24-255): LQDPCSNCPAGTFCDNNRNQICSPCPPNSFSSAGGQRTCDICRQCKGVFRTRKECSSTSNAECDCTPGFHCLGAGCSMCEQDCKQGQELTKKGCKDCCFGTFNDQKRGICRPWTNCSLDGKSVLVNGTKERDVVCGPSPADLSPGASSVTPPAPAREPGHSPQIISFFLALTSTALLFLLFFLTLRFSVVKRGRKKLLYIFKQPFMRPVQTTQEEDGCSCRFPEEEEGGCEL

Turning to “co-stimulatory 4-1BB ligand (CD137L) expressed on the surface of gene-modified hMSCs (SCP-1) (from UniProt P41273 1-254)”, the IFN-gamma secretion by T cells (ELISA, 24 h) was > 10 fold; the T cell expansion (T cell number at day 6 to day 0) was 2 fold and 3 fold; the TNF-alpha secretion by T cells (ELISA, 24 h) was < 8 fold; the expansion of autologous AML patient T cells after 96 h of co-culture is 3 fold.

Source of the values: US20210284729A1.
